Data on 12 molecules can be found in patent publication US20210301000A1.

Assay [1] has as its target (DN-(I+II+III+IV)-NS) antigen (self-produced, expressed in insects) (dengue virus). Put plainly: capture ELISA, antibody at 1000 ng/ml.
Assay [2] shares this target. The experiment in a line: capture ELISA, antibody at 111.111 ng/ml.
Assay [3] has the same target. The experiment in a line: capture ELISA, antibody at 333.333 ng/ml. For orientation: An ELISA detects its analyte on a solid surface through an enzyme-linked reagent.
Assay [4] addresses DN quality control product recombinant protein (a recombinant antigen produced by the company itself) (dengue virus). The experiment in a line: AMO sensor, antibody on sensor, antigen in solution.
Assay [5] deals with (DN-(I+II+III+IV)-NS) antigen (self-produced, expressed in insects) (dengue virus). Put plainly: capture ELISA, antibody at 1.372 ng/ml.
Assay [6] has the same target. Put plainly: capture ELISA, antibody at 4.115 ng/ml.
The target is the same in assay [7]. The experiment in a line: capture ELISA, antibody at 12.346 ng/ml.
Assay [8] has the same target. Put plainly: capture ELISA, antibody at 37.037 ng/ml.
For assay [9] the target is unchanged. The experiment in a line: capture ELISA, antibody at 0 ng/ml (blank).

Changes are numbered by the printed parent chain.

B1: Mutation 3 (antibody, V domains shown)
VH: QVQLQQSGAELVRPGTSVKISCKASGYTFTDYWIGWVKQRPGHGLEWIGDMWPGDLYINYQEKFKGKATLTADTSSNTAYMQLSSLTSEDSAVYFCTNFITVGGLDYWGRGTSLTVSS
VL: DVVMTQTPLTLSVTIGQPASISCKSSQSLLSSDGRTYLNWLLQRPGQSPKRLIYLVTKVDSGVPDRFTGSGSVTDFTLKISRVESEDLGVYYCWQGTHFFHTFGAGTKLEVKR
Turning to B1, the OD450 (ref 630) in assay [1] was 0.847 OD; in assay [2], 0.056 OD; in [3], 0.347 OD.

B2: WT 1-7 (antibody, V domains shown)
VH: B1 VH with T28S, D31E, W52V, L105V
VL: B1 VL with S31E, R35K, V59I, Q95Y, F100A
As for B2, in assay [4], the equilibrium dissociation constant (Kd) was found to be 65.5 nM, the off-rate constant (koff) was determined as 0.000231 s⁻¹ and the kon worked out at 3530 M⁻¹ s⁻¹.

B3: Mutation 1-25 (antibody, V domains shown)
VH: B1 VH with D31E, W52F, L56V, I100L, V102L
VL: B1 VL with Q27N, S31D, T57S, V59I, Q95Y, F100P
Regarding B3, in assay [4], the Kd worked out at 6.04 nM, the off-rate (koff) stood at 0.000273 s⁻¹ and the kon came out at 45100 M⁻¹ s⁻¹.

B4: WT 1-30 (antibody, V domains shown)
VH: B1 VH with T28S, D31E, W52V, Q61N, I100L, L105V
VL: B1 VL with Q27N, S31E, R35K, V59I, Q95W, F100A
B4: in [4], the Kd was determined as 20.4 nM, the off-rate (koff) is 0.000149 s⁻¹ and the kon was determined as 7280 M⁻¹ s⁻¹.

B5: Mutation 1-40 (antibody, V domains shown)
VH: B1 VH with W52F, L56V, V102L, L105I
VL: B1 VL with Q27N, S31D, T57S, V59I, Q95Y, F100P
Consider B5, for which, in [4], the dissociation constant (Kd) turned out to be 4.05 nM, the off-rate (koff) came to 0.000171 s⁻¹ and the kon was found to be 42300 M⁻¹ s⁻¹.

B6: Mutation 1-19 (antibody, V domains shown)
VH: B1 VH with D31E, W52F, L56I, Q61N, V102L, L105I
VL: B1 VL with Q27N, S31D, T57S, V59I, Q95Y, F100P
Consider B6, for which, in assay [4], the Kd was found to be 4.72 nM, the koff worked out at 0.000279 s⁻¹ and the kon was 59200 M⁻¹ s⁻¹.

B7: WT 1-4 (antibody, V domains shown)
VH: B1 VH with T28S, W52V, L56I, I100L, L105V
VL: B1 VL with S31E, V59I, Q95Y, F100A
For B7, in [4], the Kd was 28 nM, the off-rate (koff) turned out to be 0.000142 s⁻¹ and the on-rate (kon) was 5080 M⁻¹ s⁻¹.

B8: Mutation 1-28 (antibody, V domains shown)
VH: B1 VH with W52F, L56I, Q61N, V102L, L105I
VL: B1 VL with Q27N, S31D, T57S, V59I, Q95Y, F100P
Regarding B8, in assay [4], the dissociation constant (Kd) was found to be 6.59 nM, the dissociation rate constant (koff) came to 0.000337 s⁻¹ and the on-rate (kon) was found to be 51200 M⁻¹ s⁻¹.

B9: WT 1-20 (antibody, V domains shown)
VH: B1 VH with T28S, W52V, L56I
VL: B1 VL with S31E, V59L, Q95W, F100A
Take B9: in assay [4], the Kd was 45.9 nM, the koff is 0.000143 s⁻¹ and the on-rate constant (kon) stood at 3120 M⁻¹ s⁻¹.

B10: Mutation 1-46 (antibody, V domains shown)
VH: B1 VH with D31E, W52F, L56I, Q61N, V102L, L105I
VL: B1 VL with Q27N, S31D, T57S, Q95Y, F100P
On to B10, for which, in assay [4], the Kd worked out at 8 nM, the dissociation rate constant (koff) is 0.000479 s⁻¹ and the association rate constant (kon) was 59900 M⁻¹ s⁻¹.

B11: recombinant anti-dengue virus NS1 11E2 antibody (WT) (antibody, mouse IgG2a, kappa, V domains shown)
VH: B1 VH with T28S, W52V
VL: B1 VL with Q27N, S31D, R35K, V59I, Q95W, F100P
For B11, the OD450 (ref 630) came out at 2.32 OD in assay [1]; 0.297 OD in assay [5]; 0.448 OD in assay [6]; 0.838 OD in assay [7]; 1.66 OD in assay [8]; 2.2 OD in assay [2]. The OD450 (ref 630) in assay [3] was 2.38 OD; in [9] it was 0.163 OD. Further, the dissociation constant (Kd) in assay [4] came to 58.8 nM. Besides, in assay [4], the off-rate (koff) came out at 0.000398 s⁻¹. For the same molecule, the on-rate (kon) in assay [4] came to 6770 M⁻¹ s⁻¹.

B12: WT 1-1 (antibody, V domains shown)
VH: B1 VH with T28S, D31E, W52V, Q61N, L105V
VL: B1 VL with S31E, R35K, V59I, Q95Y, F100A
For B12, in assay [4], the equilibrium dissociation constant (Kd) was 12.8 nM, the koff was 5.86e-05 s⁻¹ and the kon worked out at 4570 M⁻¹ s⁻¹.

What is called Kd is the equilibrium constant for the complex coming apart. Broadly, the koff is the rate constant with which the complex falls apart. What is called kon is the rate constant with which the complex forms.
